In PMC9482650, “Quantitative fragmentomics allow affinity mapping of interactomes” (Nature Communications, 2022):

T1: ARHGEF11, O15085
T1 sequence (O15085 42-136, limits assumed, looked up): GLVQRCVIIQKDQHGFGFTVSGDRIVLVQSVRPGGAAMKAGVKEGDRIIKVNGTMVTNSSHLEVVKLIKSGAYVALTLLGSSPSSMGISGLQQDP

T2: DFNB31_2, Q9P202
T2 sequence (Q9P202 274-371, limits assumed, looked up): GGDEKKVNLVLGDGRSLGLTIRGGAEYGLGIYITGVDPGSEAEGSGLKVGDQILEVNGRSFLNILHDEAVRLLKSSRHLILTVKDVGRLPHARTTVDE

T3: GRIP1_2, Q9Y3R0
T3 sequence (Q9Y3R0 145-248, limits assumed, looked up): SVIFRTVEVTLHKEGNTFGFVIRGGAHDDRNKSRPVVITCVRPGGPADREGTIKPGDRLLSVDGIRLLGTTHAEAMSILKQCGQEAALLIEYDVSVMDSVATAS

T4: GRIP1_3, Q9Y3R0
T4 sequence (Q9Y3R0 247-346, limits assumed, looked up): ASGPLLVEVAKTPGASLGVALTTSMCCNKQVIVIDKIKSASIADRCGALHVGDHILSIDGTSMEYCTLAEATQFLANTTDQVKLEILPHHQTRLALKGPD

T5: GRIP1_5, Q9Y3R0
T5 sequence (Q9Y3R0 568-668, limits assumed, looked up): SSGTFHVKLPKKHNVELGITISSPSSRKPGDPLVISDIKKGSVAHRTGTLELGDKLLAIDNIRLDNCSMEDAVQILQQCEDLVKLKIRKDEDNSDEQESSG

T6: GRIP1_7, Q9Y3R0
T6 sequence (Q9Y3R0 999-1096, limits assumed, looked up): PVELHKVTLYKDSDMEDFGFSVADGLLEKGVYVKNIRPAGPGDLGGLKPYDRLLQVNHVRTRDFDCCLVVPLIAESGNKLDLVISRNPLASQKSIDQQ

T7: MPP6, Q9NZW5
T7 sequence (Q9NZW5 125-219, limits assumed, looked up): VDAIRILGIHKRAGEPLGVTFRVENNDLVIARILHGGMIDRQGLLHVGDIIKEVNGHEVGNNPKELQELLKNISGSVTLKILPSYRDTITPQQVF

T8: PCLO, Q9Y6V0
T8 sequence (Q9Y6V0 4491-4600, limits assumed, looked up): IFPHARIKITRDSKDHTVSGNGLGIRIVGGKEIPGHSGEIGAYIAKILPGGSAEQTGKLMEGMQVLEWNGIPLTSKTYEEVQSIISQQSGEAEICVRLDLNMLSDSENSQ

T9: PDZD2_2, O15018
T9 sequence (O15018 329-429, limits assumed, looked up): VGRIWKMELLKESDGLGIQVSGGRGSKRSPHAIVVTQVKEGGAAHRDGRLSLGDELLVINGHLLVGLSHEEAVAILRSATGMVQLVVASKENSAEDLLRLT

T10: RAPGEF6, Q8TEU7
T10 sequence (Q8TEU7 525-625, limits assumed, looked up): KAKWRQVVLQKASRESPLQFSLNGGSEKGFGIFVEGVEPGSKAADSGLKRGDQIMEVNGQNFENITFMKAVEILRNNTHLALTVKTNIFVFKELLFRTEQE


Key:
Test in all cases: holdup assay
Set-up in all cases: key: below the threshold = too weak to quantify, mostly under pKd 3.1 to 4
Details in all cases: plain residues with an end cap or a label only (N-terminal biotin on a linker: ado-ado)
AHNAK1, Q09666 = target: AHNAK1, Q09666
Chain of AHNAK1, Q09666 (Q09666 4-100): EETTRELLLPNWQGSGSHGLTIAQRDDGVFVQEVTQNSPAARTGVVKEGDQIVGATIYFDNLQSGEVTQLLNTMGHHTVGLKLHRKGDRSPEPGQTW

ARHGEF11, O15085 = target: T1, ARHGEF11, O15085
DFNB31_2, Q9P202 = target: T2, DFNB31_2, Q9P202
GIPC2, Q8TF65 = target: GIPC2, Q8TF65
Chain of GIPC2, Q8TF65 (Q8TF65 112-203): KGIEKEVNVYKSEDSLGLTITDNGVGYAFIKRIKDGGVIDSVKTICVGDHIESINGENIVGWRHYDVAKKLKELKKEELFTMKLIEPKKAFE

GORASP1, Q9BQQ3 = target: GORASP1, Q9BQQ3
Chain of GORASP1, Q9BQQ3 (Q9BQQ3 1-208): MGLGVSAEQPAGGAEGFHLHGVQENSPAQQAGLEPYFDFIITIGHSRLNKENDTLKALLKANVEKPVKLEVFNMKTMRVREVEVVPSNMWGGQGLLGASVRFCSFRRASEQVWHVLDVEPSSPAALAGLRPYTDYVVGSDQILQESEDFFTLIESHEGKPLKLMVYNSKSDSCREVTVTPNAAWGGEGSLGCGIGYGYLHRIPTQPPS

GRID2IP_2, A4D2P6 = target: GRID2IP_2, A4D2P6
Chain of GRID2IP_2, A4D2P6 (A4D2P6 272-370): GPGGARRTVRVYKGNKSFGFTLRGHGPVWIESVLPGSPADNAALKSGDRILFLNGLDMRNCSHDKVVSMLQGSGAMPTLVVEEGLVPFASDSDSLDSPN

GRIP1_2, Q9Y3R0 = target: T3, GRIP1_2, Q9Y3R0
GRIP1_3, Q9Y3R0 = target: T4, GRIP1_3, Q9Y3R0
GRIP1_5, Q9Y3R0 = target: T5, GRIP1_5, Q9Y3R0
GRIP1_7, Q9Y3R0 = target: T6, GRIP1_7, Q9Y3R0
GRIP2_6, Q9C0E4 = target: GRIP2_6, Q9C0E4
Chain of GRIP2_6, Q9C0E4 (Q9C0E4 648-740): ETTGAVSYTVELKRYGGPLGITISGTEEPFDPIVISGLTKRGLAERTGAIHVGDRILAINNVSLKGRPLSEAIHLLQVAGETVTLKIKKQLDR

GRIP2_7, Q9C0E4 = target: GRIP2_7, Q9C0E4
Chain of GRIP2_7, Q9C0E4 (Q9C0E4 934-1023): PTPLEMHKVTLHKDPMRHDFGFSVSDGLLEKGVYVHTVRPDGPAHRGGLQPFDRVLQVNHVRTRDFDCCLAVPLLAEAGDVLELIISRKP

Inadl_10, Q8NI35 = target: Inadl_10, Q8NI35
Chain of Inadl_10, Q8NI35 (Q8NI35 1673-1763): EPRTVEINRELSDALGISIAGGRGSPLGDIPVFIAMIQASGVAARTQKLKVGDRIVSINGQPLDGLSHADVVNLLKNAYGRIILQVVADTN

Inadl_2, Q8NI35 = target: Inadl_2, Q8NI35
Chain of Inadl_2, Q8NI35 (Q8NI35 238-335): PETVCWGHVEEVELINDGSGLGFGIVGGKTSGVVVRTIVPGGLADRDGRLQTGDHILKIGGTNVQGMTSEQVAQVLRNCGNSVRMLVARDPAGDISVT

Inadl_3, Q8NI35 = target: Inadl_3, Q8NI35
Chain of Inadl_3, Q8NI35 (Q8NI35 359-469): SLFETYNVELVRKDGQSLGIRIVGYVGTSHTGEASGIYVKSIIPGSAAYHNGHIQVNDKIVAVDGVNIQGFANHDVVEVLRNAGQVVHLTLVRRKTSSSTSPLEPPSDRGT

Inadl_6, Q8NI35 = target: Inadl_6, Q8NI35
Chain of Inadl_6, Q8NI35 (Q8NI35 1058-1167): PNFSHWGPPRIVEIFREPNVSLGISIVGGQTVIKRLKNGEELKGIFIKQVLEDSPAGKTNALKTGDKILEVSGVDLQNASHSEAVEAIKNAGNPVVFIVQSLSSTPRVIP

Inadl_8, Q8NI35 = target: Inadl_8, Q8NI35
Chain of Inadl_8, Q8NI35 (Q8NI35 1425-1530): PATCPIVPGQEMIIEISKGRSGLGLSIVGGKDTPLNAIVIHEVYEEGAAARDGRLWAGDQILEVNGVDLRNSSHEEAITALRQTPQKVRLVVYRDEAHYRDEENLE

LIMK2, P53671 = target: LIMK2, P53671
Chain of LIMK2, P53671 (P53671 143-248): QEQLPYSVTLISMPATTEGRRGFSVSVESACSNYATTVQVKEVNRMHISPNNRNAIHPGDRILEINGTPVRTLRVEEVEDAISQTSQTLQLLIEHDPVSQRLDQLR

MAGI1_2, Q96QZ7 = target: MAGI1_2, Q96QZ7
Chain of MAGI1_2, Q96QZ7 (Q96QZ7 456-580): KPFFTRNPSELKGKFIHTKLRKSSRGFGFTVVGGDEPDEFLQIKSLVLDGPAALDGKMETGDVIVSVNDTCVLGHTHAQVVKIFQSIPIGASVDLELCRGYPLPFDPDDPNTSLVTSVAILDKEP

MAGI2_5, Q86UL8 = target: MAGI2_5, Q86UL8
Chain of MAGI2_5, Q86UL8 (Q86UL8 915-1017): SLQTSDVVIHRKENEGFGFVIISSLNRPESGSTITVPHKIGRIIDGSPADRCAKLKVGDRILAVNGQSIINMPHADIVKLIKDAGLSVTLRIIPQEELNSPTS

MAST2, Q6P0Q8 = target: MAST2, Q6P0Q8
Chain of MAST2, Q6P0Q8 (Q6P0Q8 1099-1202): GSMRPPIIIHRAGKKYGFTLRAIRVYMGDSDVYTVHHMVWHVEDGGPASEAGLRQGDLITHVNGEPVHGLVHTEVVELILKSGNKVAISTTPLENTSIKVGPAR

MPP6, Q9NZW5 = target: T7, MPP6, Q9NZW5
PCLO, Q9Y6V0 = target: T8, PCLO, Q9Y6V0
PDZD2_2, O15018 = target: T9, PDZD2_2, O15018
PDZRN4_1, Q6ZMN7 = target: PDZRN4_1, Q6ZMN7
Chain of PDZRN4_1, Q6ZMN7 (Q6ZMN7 213-318): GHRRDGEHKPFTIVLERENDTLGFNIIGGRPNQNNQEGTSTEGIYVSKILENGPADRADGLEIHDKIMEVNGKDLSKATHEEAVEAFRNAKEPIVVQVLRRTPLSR

RAPGEF6, Q8TEU7 = target: T10, RAPGEF6, Q8TEU7
SNX27, Q96L92 = target: SNX27, Q96L92
TJP2_1, Q9UDY2 = target: TJP2_1, Q9UDY2
Chain of TJP2_1, Q9UDY2 (Q9UDY2 24-128): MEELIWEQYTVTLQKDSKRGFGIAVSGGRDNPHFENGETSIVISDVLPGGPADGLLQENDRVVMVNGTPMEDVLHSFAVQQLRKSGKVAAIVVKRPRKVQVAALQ

Row | Binder | pKd (AHNAK1, Q09666) | pKd (ARHGEF11, O15085) | pKd (DFNB31_2, Q9P202) | pKd (GIPC2, Q8TF65) | pKd (GORASP1, Q9BQQ3) | pKd (GRID2IP_2, A4D2P6) | pKd (GRIP1_2, Q9Y3R0) | pKd (GRIP1_3, Q9Y3R0) | pKd (GRIP1_5, Q9Y3R0) | pKd (GRIP1_7, Q9Y3R0) | pKd (GRIP2_6, Q9C0E4) | pKd (GRIP2_7, Q9C0E4) | pKd (Inadl_10, Q8NI35) | pKd (Inadl_2, Q8NI35) | pKd (Inadl_3, Q8NI35) | pKd (Inadl_6, Q8NI35) | pKd (Inadl_8, Q8NI35) | pKd (LIMK2, P53671) | pKd (MAGI1_2, Q96QZ7) | pKd (MAGI2_5, Q86UL8) | other results
1 | PEEGKKQSQC [GAGE12J, A6NER3] | below the threshold | 3.62 | below the threshold | 3.62 | below the threshold | 3.49 | below the threshold | below the threshold | below the threshold | below the threshold | below the threshold | below the threshold | below the threshold | below the threshold | below the threshold | below the threshold | 3.5 | below the threshold | below the threshold | below the threshold | pKd (MAST2, Q6P0Q8): 4.33; pKd (MPP6, Q9NZW5): below the threshold; pKd (PCLO, Q9Y6V0): below the threshold; pKd (PDZD2_2, O15018): 4.01; pKd (PDZRN4_1, Q6ZMN7): below the threshold; pKd (RAPGEF6, Q8TEU7): below the threshold; pKd (SNX27, Q96L92): below the threshold; pKd (TJP2_1, Q9UDY2): below the threshold
2 | NPETRDETQL [KCNT1, Q5JUK3] | below the threshold | 4.01 | below the threshold | 3.49 | below the threshold | 3.85 | below the threshold | below the threshold | below the threshold | below the threshold | below the threshold | below the threshold | below the threshold | below the threshold | below the threshold | 3.76 | below the threshold | below the threshold | below the threshold | 3.75 | pKd (MAST2, Q6P0Q8): 5.68; pKd (MPP6, Q9NZW5): 3.74; pKd (PCLO, Q9Y6V0): below the threshold; pKd (PDZD2_2, O15018): 3.72; pKd (PDZRN4_1, Q6ZMN7): 4.69; pKd (RAPGEF6, Q8TEU7): below the threshold; pKd (SNX27, Q96L92): 5.22; pKd (TJP2_1, Q9UDY2): below the threshold
3 | PDSNPEESSV [SEMA4C, Q9C0C4] | below the threshold | 3.83 | below the threshold | 3.87 | below the threshold | 3.9 | below the threshold | below the threshold | below the threshold | below the threshold | below the threshold | below the threshold | below the threshold | below the threshold | below the threshold | below the threshold | 3.66 | below the threshold | below the threshold | 3.89 | pKd (MAST2, Q6P0Q8): 5.36; pKd (MPP6, Q9NZW5): below the threshold; pKd (PCLO, Q9Y6V0): below the threshold; pKd (PDZD2_2, O15018): 5.35; pKd (PDZRN4_1, Q6ZMN7): 4.43; pKd (RAPGEF6, Q8TEU7): below the threshold; pKd (SNX27, Q96L92): 5.45; pKd (TJP2_1, Q9UDY2): below the threshold

The next lines start with results.

Row | pKd (AHNAK1, Q09666) | pKd (ARHGEF11, O15085) | pKd (DFNB31_2, Q9P202) | pKd (GIPC2, Q8TF65) | pKd (GORASP1, Q9BQQ3) | pKd (GRID2IP_2, A4D2P6) | pKd (GRIP1_2, Q9Y3R0) | pKd (GRIP1_3, Q9Y3R0) | pKd (GRIP1_5, Q9Y3R0) | pKd (GRIP1_7, Q9Y3R0) | pKd (GRIP2_6, Q9C0E4) | pKd (GRIP2_7, Q9C0E4) | pKd (Inadl_10, Q8NI35) | pKd (Inadl_2, Q8NI35) | pKd (Inadl_3, Q8NI35) | pKd (Inadl_6, Q8NI35) | pKd (Inadl_8, Q8NI35) | pKd (LIMK2, P53671) | pKd (MAGI1_2, Q96QZ7) | pKd (MAGI2_5, Q86UL8) | Binder | other results
4 | below the threshold | 4 | below the threshold | below the threshold | 4.36 | below the threshold | below the threshold | below the threshold | below the threshold | below the threshold | below the threshold | below the threshold | below the threshold | below the threshold | 4.51 | 3.53 | 3.5 | below the threshold | 4.14 | 4.06 | PKLMGVETVV [DUSP10, Q9Y6W6] | pKd (MAST2, Q6P0Q8): 5.17; pKd (MPP6, Q9NZW5): 3.82; pKd (PCLO, Q9Y6V0): below the threshold; pKd (PDZD2_2, O15018): 4.22; pKd (PDZRN4_1, Q6ZMN7): 3.7; pKd (RAPGEF6, Q8TEU7): below the threshold; pKd (SNX27, Q96L92): 5.23; pKd (TJP2_1, Q9UDY2): below the threshold
5 | below the threshold | 3.93 | below the threshold | below the threshold | below the threshold | 4.02 | below the threshold | below the threshold | below the threshold | below the threshold | below the threshold | below the threshold | below the threshold | below the threshold | below the threshold | below the threshold | 3.7 | below the threshold | below the threshold | below the threshold | SSGSTSSSRI [ADGRG1, Q9Y653] | pKd (MAST2, Q6P0Q8): 4.68; pKd (MPP6, Q9NZW5): below the threshold; pKd (PCLO, Q9Y6V0): below the threshold; pKd (PDZD2_2, O15018): 4.18; pKd (PDZRN4_1, Q6ZMN7): below the threshold; pKd (RAPGEF6, Q8TEU7): 3.7; pKd (SNX27, Q96L92): 3.56; pKd (TJP2_1, Q9UDY2): below the threshold
